Laboratory results as given in PMC13167113.

How the values were obtained:
[1] = molecular target: CXCR4 endogenous on cells (human (endogenous in Daudi and Jurkat)) (UniProt P61073)
[2] = molecular target: CXCR4 endogenous on cells (human (endogenous in Daudi and Jurkat)) (UniProt P61073); remark: listed apart in the source

UniProt P61073, sequence (P61073 whole entry): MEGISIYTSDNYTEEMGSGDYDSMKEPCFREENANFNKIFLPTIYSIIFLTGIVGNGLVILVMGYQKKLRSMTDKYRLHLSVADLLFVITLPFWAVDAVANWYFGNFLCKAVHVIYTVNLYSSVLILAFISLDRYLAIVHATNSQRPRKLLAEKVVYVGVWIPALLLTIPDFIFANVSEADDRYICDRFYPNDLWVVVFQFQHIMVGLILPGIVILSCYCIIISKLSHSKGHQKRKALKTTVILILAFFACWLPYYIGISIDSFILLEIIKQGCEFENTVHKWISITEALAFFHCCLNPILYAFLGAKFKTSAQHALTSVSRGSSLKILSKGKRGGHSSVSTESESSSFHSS

Row | Substance | SPT-TIRF: percentage of CXCR4-AcGFP particles that are nanoclusters (≥3 receptors/particle) on JKCD4+X4- cells on X4-gp120-coated coverslips (basal ∼2%) [1] [%] | SPT-TIRF: percentage of CXCR4-AcGFP particles that are nanoclusters (≥3 receptors/particle) on JKCD4+X4- cells on gp120-VLP-coated coverslips (basal ∼1%; Env(-) VLPs ∼9%) [2] [%]
1 | recombinant X4 HIV-1 gp120 (residues 31-507, isolate HXB2) with a C-terminal histidine tag (from UniProt P04578 31-507) (domain or fragment) | 18 | 
2 | X4 HIV-1 Env (gp120 and gp41) of HXB2 on virus-like particles (from UniProt P04578 33-511; P04578 512-856) (complex) |  | 29
